Here are results for two molecules from article PMC6550530.

For data set [1], the target named is T1, CsrA (Vibrio cholerae, UniProt Q9KUH3 1-65). Description: EMSA; CsrA up to 40 nM; LightShift chemiluminescent RNA EMSA kit per manufacturer, 10 ul volume; 12% nondenaturing PAGE; buffer, salt, pH and temperature not stated. To be noted: protein: recombinant; tags: N-terminal His-TEV tag removed by TEV protease; chain copies: 2; label: 5' biotin.
Data set [2] addresses T1, CsrA. The data set can be described thus: EMSA; shift seen at 1.6 nM CsrA, increasing at 8 and 40 nM; LightShift chemiluminescent RNA EMSA kit per manufacturer, 10 ul volume; 12% nondenaturing PAGE; buffer, salt, pH and temperature not stated. To be noted: protein: recombinant; tags: N-terminal His-TEV tag removed by TEV protease; chain copies: 2; label: 5' biotin. On the technique in general: Mobility shift assays separate free from complexed probe on a gel.

T1 sequence (Q9KUH3 whole entry): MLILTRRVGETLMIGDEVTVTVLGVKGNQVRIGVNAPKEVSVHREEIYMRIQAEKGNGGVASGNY

B1: atpI RNA oligonucleotide (ssRNA)
RNA: AAAAUUGUAACUUUUUGCGGUGUUUUCAUUGCAAUCAGUUGAUGCCACCGUAUAAUUUUCGCCAAUUUCCCAGUCCGAAAAAGCGGUUCGAGCUGUGGUGAUUACUAGAGGUAAGAAUAC
In the case of B1, in the data set with CsrA [1], the binding result is recorded as “no binding”.

B2: varA RNA oligonucleotide (ssRNA)
RNA: AAGUGUGGAGAUACAAGUUUGAUUAGUGUUUUCCUUGUAGAUGAUCACGAGCUGGUUCGCACAGGGAUACGACGUAUUAUUGAAGACGUCCGUGGAAUGAAAGUAGCAGGGGAAGCUGAC
For B2, the binding result with CsrA [2] was “binds”.
